Reference: article PMC11215305

Target: RadD of F. nucleatum subsp. nucleatum ATCC 23726 (Fusobacterium nucleatum subsp. nucleatum ATCC 23726 (endogenous))
Experiment: flow cytometry on cells

human Siglec-7-Ig (from UniProt Q9Y286 19-353) (Fc fusion)
percent reduction of binding with 5 mM arginine: 31%
